Positions count from the first letter of the chain named. Names may count otherwise.
T1: PUF4 RNA-binding domain (Saccharomyces cerevisiae, UniProt P25339 537-888)
T1 sequence: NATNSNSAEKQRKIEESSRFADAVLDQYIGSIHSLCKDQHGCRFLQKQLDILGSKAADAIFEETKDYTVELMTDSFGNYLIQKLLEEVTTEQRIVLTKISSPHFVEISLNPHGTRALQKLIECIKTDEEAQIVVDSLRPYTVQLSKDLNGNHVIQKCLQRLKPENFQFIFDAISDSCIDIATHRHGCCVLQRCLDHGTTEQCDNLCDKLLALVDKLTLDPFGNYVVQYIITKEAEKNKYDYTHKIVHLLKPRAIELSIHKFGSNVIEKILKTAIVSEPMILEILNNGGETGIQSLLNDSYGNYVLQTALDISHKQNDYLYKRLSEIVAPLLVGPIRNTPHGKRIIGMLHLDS

B1: Id_ii_S2_P5E.3_K5.2_C5.2_[C-2G]_[T-1C]_H5.2_A5.1_F5.1_T5.2_[T11C] (ssRNA)
RNA: UUUGAUUAAUAUGAUAUCGUUCUUUCUGCUAUAUUAUUACAUUCUUUCUCGAUAUCAUAUUAAUCUUU
B2: Id_ii_S2_P5E.3_K5.2_C5.2_[C-2T]_[T-1C]_H5.2_A5.1_F5.1_T5.2_[T11C]_[A12T] (ssRNA)
RNA: B1 RNA with G28U, A41U
B3: Id_ii_S2_P5E.2_K5.1_C5.2_H5.1_A5.1_F5.1_T5.2_[A12T] (ssRNA)
RNA: B1 RNA with G28C, C29U, A31G, C40U, A41U
B4: Id_ii_S2_P5E.3_K5.2_C5.2_[C-2T]_[T-1G]_H5.2_A5.1_F5.1_T5.2_[T11A]_[A12C] (ssRNA)
RNA: B1 RNA with G28U, C29G, C40A, A41C
B5: Id_ii_S2_P5E.2_K5.1_C5.2_[T-1G]_H5.1_A5.1_F5.1_T5.2_[T11A]_[A12T] (ssRNA)
RNA: B1 RNA with G28C, C29G, A31G, C40A, A41U
B6: Id_ii_S2_P5E.2_K5.1_C5.2_[T-1C]_H5.1_A5.1_F5.1_T5.2_[A12C] (ssRNA)
RNA: B1 RNA with G28C, A31G, C40U, A41C
B7: Id_ii_S2_P5E.2_K5.1_C5.2_[T-1A]_H5.1_A5.1_F5.1_T5.2_[T11G]_[A12C] (ssRNA)
RNA: B1 RNA with G28C, C29A, A31G, C40G, A41C
B8: Id_ii_S2_P5E.2_K5.1_C5.2_[T-1G]_H5.1_A5.1_F5.1_T5.2_[T11A] (ssRNA)
RNA: B1 RNA with G28C, C29G, A31G, C40A
B9: Id_ii_S2_P5E.3_K5.2_C5.2_[C-2G]_H5.2_A5.1_F5.1_T5.2_[A12C] (ssRNA)
RNA: B1 RNA with C29U, C40U, A41C
B10: Id_ii_S2_P5E.2_K5.1_C5.2_[T-1A]_H5.1_A5.1_F5.1_T5.2_[A12T] (ssRNA)
RNA: B1 RNA with G28C, C29A, A31G, C40U, A41U
B11: Id_ii_S2_P5E.3_K5.2_C5.2_[C-2G]_[T-1C]_H5.2_A5.1_F5.1_T5.2_[T11A] (ssRNA)
RNA: B1 RNA with C40A
B12: Id_ii_S2_P5E.3_K5.2_C5.2_[C-2G]_[T-1C]_H5.2_A5.1_F5.1_T5.2_[T11A]_[A12C] (ssRNA)
RNA: B1 RNA with C40A, A41C
B13: Id_ii_S2_P5E.2_K5.1_C5.2_H5.1_A5.1_F5.1_T5.2_[T11A] (ssRNA)
RNA: B1 RNA with G28C, C29U, A31G, C40A
B14: Id_ii_S2_P5E.3_K5.2_C5.2_[C-2G]_[T-1C]_H5.2_A5.1_F5.1_T5.2_[A12C] (ssRNA)
RNA: B1 RNA with C40U, A41C
B15: Id_ii_S2_P5E.2_K5.1_C5.2_[T-1A]_H5.1_A5.1_F5.1_T5.2_[A12C] (ssRNA)
RNA: B1 RNA with G28C, C29A, A31G, C40U, A41C
B16: Id_ii_S2_P5E.2_K5.1_C5.2_[T-1C]_H5.1_A5.1_F5.1_T5.2_[T11A]_[A12G] (ssRNA)
RNA: B1 RNA with G28C, A31G, C40A, A41G
B17: Id_ii_S2_P5E.2_K5.1_C5.2_[T-1A]_H5.1_A5.1_F5.1_T5.2_[T11A]_[A12T] (ssRNA)
RNA: B1 RNA with G28C, C29A, A31G, C40A, A41U
B18: Id_ii_S2_P5E.3_K5.2_C5.2_[C-2T]_[T-1G]_H5.2_A5.1_F5.1_T5.2_[T11A]_[A12T] (ssRNA)
RNA: B1 RNA with G28U, C29G, C40A, A41U
B19: Id_ii_S2_P5E.2_K5.1_C5.2_H5.1_A5.1_F5.1_T5.2_[T11G]_[A12C] (ssRNA)
RNA: B1 RNA with G28C, C29U, A31G, C40G, A41C
B20: Id_ii_S2_P5E.2_K5.1_C5.2_[T-1G]_H5.1_A5.1_F5.1_T5.2_[T11G]_[A12C] (ssRNA)
RNA: B1 RNA with G28C, C29G, A31G, C40G, A41C
B21: Id_ii_S2_P5E.2_K5.1_C5.2_[T-1A]_H5.1_A5.1_F5.1_T5.2_[T11A]_[A12G] (ssRNA)
RNA: B1 RNA with G28C, C29A, A31G, C40A, A41G
B22: Id_ii_S2_P5E.3_K5.2_C5.2_[C-2G]_H5.2_A5.1_F5.1_T5.2_[T11G]_[A12T] (ssRNA)
RNA: B1 RNA with C29U, C40G, A41U
B23: Id_ii_S2_P5E.2_K5.1_C5.2_[T-1G]_H5.1_A5.1_F5.1_T5.2_[A12C] (ssRNA)
RNA: B1 RNA with G28C, C29G, A31G, C40U, A41C
B24: Id_ii_S2_P5E.3_K5.2_C5.2_[C-2G]_H5.2_A5.1_F5.1_T5.2_[T11C]_[A12G] (ssRNA)
RNA: B1 RNA with C29U, A41G
B25: Id_ii_S2_P5E.3_K5.2_C5.2_[C-2G]_[T-1C]_H5.2_A5.1_F5.1_T5.2_[A12T] (ssRNA)
RNA: B1 RNA with C40U, A41U
B26: Id_ii_S2_P5E.3_K5.2_C5.2_[C-2G]_H5.2_A5.1_F5.1_T5.2_[T11A] (ssRNA)
RNA: B1 RNA with C29U, C40A
B27: Id_ii_S2_P5E.2_K5.1_C5.2_[T-1A]_H5.1_A5.1_F5.1_T5.2_[T11A]_[A12C] (ssRNA)
RNA: B1 RNA with G28C, C29A, A31G, C40A, A41C
B28: Id_ii_S2_P5E.3_K5.2_C5.2_[C-2G]_H5.2_A5.1_F5.1_T5.2_[T11C]_[A12T] (ssRNA)
RNA: B1 RNA with C29U, A41U
B29: Ib_S1_P5E.1_K5.1_C5.1_H5.1_A5.1_[T6C]_F5.1_[T8A]_T5.1 (ssRNA)
RNA: UCUCUUUGUAUCAAUAUCUCUU

These binders were tested against T1, PUF4 RNA-binding domain (assay: Mg; RNA-MaP; 20 mM Na-HEPES pH 7.4, 30 mM KOAc, 0.75 mM MgCl2, 0.1% Tween-20, 5% glycerol, 0.1 mg/mL BSA, 2 mM DTT; 25 C; 0.0125-409.6 nM protein). Conditions: tags: N-His6-TEV cleaved; C-SNAP kept, Cy3B-labelled; label: tethered on chip by stalled RNA polymerase.

| Binder | Kd [nM] |
| --- | --- |
| B1 | 546 |
| B2 | 82.2 |
| B3 | 1.19 |
| B4 | 0.571 |
| B5 | 2.03 |
| B6 | 1.5 |
| B7 | 2.55 |
| B8 | 3.97 |
| B9 | 16 |
| B10 | 3.27 |
| B11 | 394 |
| B12 | 381 |
| B13 | 3.44 |
| B14 | 455 |
| B15 | 2.97 |
| B16 | 9.77 |
| B17 | 4.3 |
| B18 | 0.37 |
| B19 | 1.71 |
| B20 | 2.28 |
| B21 | 26.7 |
| B22 | 16.7 |
| B23 | 2.68 |
| B24 | 68.5 |
| B25 | 92.5 |
| B26 | 21.3 |
| B27 | 4.53 |
| B28 | 27.5 |
| B29 | 13.4 |
